Experimental data taken from article PMC9352680, “A comprehensive thermodynamic model for RNA binding by the Saccharomyces cerevisiae Pumilio protein PUF4”.
Numbering of substitutions follows the chain as printed. In names and notes the source's numbering stands.

Biological target: T1, PUF4 RNA-binding domain (Saccharomyces cerevisiae, UniProt P25339 537-888)
T1 sequence: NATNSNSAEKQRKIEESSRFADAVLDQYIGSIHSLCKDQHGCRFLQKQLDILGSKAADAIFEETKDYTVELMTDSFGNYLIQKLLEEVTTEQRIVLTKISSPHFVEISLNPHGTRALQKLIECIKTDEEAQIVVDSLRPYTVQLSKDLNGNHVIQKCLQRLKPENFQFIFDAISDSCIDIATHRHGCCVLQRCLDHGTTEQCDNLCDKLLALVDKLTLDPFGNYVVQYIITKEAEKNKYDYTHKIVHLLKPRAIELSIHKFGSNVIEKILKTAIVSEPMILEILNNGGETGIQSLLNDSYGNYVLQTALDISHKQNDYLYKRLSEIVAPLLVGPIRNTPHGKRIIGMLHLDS
Experiment: Mg; RNA-MaP; 20 mM Na-HEPES pH 7.4, 30 mM KOAc, 0.75 mM MgCl2, 0.1% Tween-20, 5% glycerol, 0.1 mg/mL BSA, 2 mM DTT; 25 C; 0.0125-409.6 nM protein
Settings: tags: N-His6-TEV cleaved; C-SNAP kept, Cy3B-labelled; label: tethered on chip by stalled RNA polymerase

With UCUCUUUGUGUAUAAUCUCUU (ssRNA) [Ib_S1_P4E.1_K4.1_C4.1_H4.1_[A4G]_A4.1_F4.1_[T8A]_T4.1] the Kd was 11.4 nM.

B1: Ic_S2_P5E.1_K5.1_C5.1_H5.1_A5.1_[T5C]_[T6A]_F5.1_[A10C]_T5.1 (ssRNA)
RNA: UUUGAUUAAUAUGAUAUCGUUCUUUCUUGUACAAUUCUUCUUUCUCGAUAUCAUAUUAAUCUUU
With B1 the Kd was 6.33 nM.

B2: Ic_S2_P5E.1_K5.1_C5.1_H5.1_A5.1_[A7T]_F5.1_[T8C]_[T9G]_[A10T]_T5.1 (ssRNA)
RNA: B1 RNA with C32U, A33U, A34U, U35C, U36G, C37U
B2 was tested, and the Kd was 86.5 nM.

B3: Ic_S2_P5E.1_K5.1_C5.1_H5.1_A5.1_[T5A]_[T6A]_[A7C]_F5.1_[T9A]_T5.1 (ssRNA)
RNA: B1 RNA with C32A, A34C, U36A, C37A
B3 gave a Kd of 1.9 nM.

B4: Ic_S2_P5E.1_K5.1_C5.1_H5.1_A5.1_[T5A]_[T6A]_[A7T]_F5.1_[T8C]_[A10T]_T5.1 (ssRNA)
RNA: B1 RNA with C32A, A34U, U35C, C37U
For B4, the Kd was 76.2 nM.

B5: Ic_S2_P5E.1_K5.1_C5.1_H5.1_A5.1_[T5A]_[T6C]_[A7C]_F5.1_[T8C]_[T9A]_[A10T]_T5.1 (ssRNA)
RNA: B1 RNA with C32A, A33C, A34C, U35C, U36A, C37U
With B5 the Kd was 591 nM.

B6: Ic_S2_P5E.1_K5.1_C5.1_H5.1_A5.1_[T5G]_[A7C]_F5.1_[T9G]_[A10T]_T5.1 (ssRNA)
RNA: B1 RNA with C32G, A33U, A34C, U36G, C37U
B6 was tested, and the Kd was 60.9 nM.

B7: Ic_S2_P5E.1_K5.1_C5.1_H5.1_A5.1_[T5C]_[T6C]_F5.1_[T8G]_[T9C]_[A10T]_T5.1 (ssRNA)
RNA: B1 RNA with A33C, U35G, U36C, C37U
With B7 the Kd was 496 nM.

B8: Ic_S2_P5E.1_K5.1_C5.1_H5.1_A5.1_[T5C]_[T6C]_F5.1_[T9C]_[A10T]_T5.1 (ssRNA)
RNA: B1 RNA with A33C, U36C, C37U
B8 showed a Kd of 5.17 nM.

B9: Ic_S2_P5E.1_K5.1_C5.1_H5.1_A5.1_[T5C]_[T6C]_[A7T]_F5.1_[T9G]_[A10G]_T5.1 (ssRNA)
RNA: B1 RNA with A33C, A34U, U36G, C37G
Binder B9 has a Kd of 210 nM.

B10: Ic_S2_P5E.1_K5.1_C5.1_H5.1_A5.1_[T6G]_[A7T]_F5.1_[T8A]_[T9C]_[A10T]_T5.1 (ssRNA)
RNA: B1 RNA with C32U, A33G, A34U, U35A, U36C, C37U
Binder B10 has a Kd of 26.3 nM.

UCUCUUUGUCUAUAAUCUCUU (ssRNA) [Ib_S1_P4E.1_K4.1_C4.1_H4.1_[A4C]_A4.1_F4.1_[T8A]_T4.1] was tested, and the Kd was 1620 nM.

B11: Ic_S2_P5E.1_K5.1_C5.1_H5.1_A5.1_[T5A]_[T6C]_[A7T]_F5.1_[T8G]_[T9C]_[A10T]_T5.1 (ssRNA)
RNA: B1 RNA with C32A, A33C, A34U, U35G, U36C, C37U
For B11, the Kd was 189 nM.

B12: Ic_S2_P5E.1_K5.1_C5.1_H5.1_A5.1_[T5C]_[T6C]_F5.1_[A10T]_T5.1 (ssRNA)
RNA: B1 RNA with A33C, C37U
With B12 the Kd was 2.17 nM.

B13: Ic_S2_P5E.1_K5.1_C5.1_H5.1_A5.1_[T5A]_[A7G]_F5.1_[T8G]_T5.1 (ssRNA)
RNA: B1 RNA with C32A, A33U, A34G, U35G, C37A
B13 was tested, and the Kd was 48.9 nM.

B14: Ic_S2_P5E.1_K5.1_C5.1_H5.1_A5.1_[T5A]_[T6C]_[A7C]_F5.1_[T8C]_[T9A]_T5.1 (ssRNA)
RNA: B1 RNA with C32A, A33C, A34C, U35C, U36A, C37A
B14 gave a Kd greater than 2300 nM.

B15: Ic_S2_P5E.1_K5.1_C5.1_H5.1_A5.1_[T5A]_[T6A]_[A7T]_F5.1_[T8A]_[T9A]_[A10C]_T5.1 (ssRNA)
RNA: B1 RNA with C32A, A34U, U35A, U36A
B15 was tested, and the Kd was 30.3 nM.

B16: Ic_S2_P5E.1_K5.1_C5.1_H5.1_A5.1_[T5C]_[T6G]_[A7C]_F5.1_[T8C]_[T9C]_[A10C]_T5.1 (ssRNA)
RNA: B1 RNA with A33G, A34C, U35C, U36C
B16 was tested, and the Kd was 140 nM.

B17: Ic_S2_P5E.1_K5.1_C5.1_H5.1_A5.1_[A7C]_F5.1_[T8G]_[T9G]_[A10T]_T5.1 (ssRNA)
RNA: B1 RNA with C32U, A33U, A34C, U35G, U36G, C37U
Binder B17 has a Kd of 475 nM.

B18: Ic_S2_P5E.1_K5.1_C5.1_H5.1_A5.1_F5.1_[T8A]_[T9C]_[A10T]_T5.1 (ssRNA)
RNA: B1 RNA with C32U, A33U, U35A, U36C, C37U
B18 was tested, and the Kd was 558 nM.

B19: Ic_S2_P5E.1_K5.1_C5.1_H5.1_A5.1_[T5A]_[T6C]_[A7C]_F5.1_[T9C]_[A10G]_T5.1 (ssRNA)
RNA: B1 RNA with C32A, A33C, A34C, U36C, C37G
B19 was tested, and the Kd was 563 nM.

B20: Ic_S2_P5E.1_K5.1_C5.1_H5.1_A5.1_[T5G]_[A7T]_F5.1_[T8G]_[T9C]_[A10T]_T5.1 (ssRNA)
RNA: B1 RNA with C32G, A33U, A34U, U35G, U36C, C37U
B20 was tested, and the Kd was 436 nM.

Work on UCUCUUUGUUUAUAAUCUCUU (ssRNA) [Ib_S1_P4E.1_K4.1_C4.1_H4.1_[A4T]_A4.1_F4.1_[T8A]_T4.1] yielded a Kd of 495 nM.

B21: Ic_S2_P5E.1_K5.1_C5.1_H5.1_A5.1_[T5A]_[T6A]_[A7T]_F5.1_[A10T]_T5.1 (ssRNA)
RNA: B1 RNA with C32A, A34U, C37U
B21 was tested, and the Kd was 17.4 nM.

B22: Ic_S2_P5E.1_K5.1_C5.1_H5.1_A5.1_[T5C]_[T6A]_[A7C]_F5.1_[T9C]_[A10C]_T5.1 (ssRNA)
RNA: B1 RNA with A34C, U36C
B22 showed a Kd of 5.44 nM.

B23: Ic_S2_P5E.1_K5.1_C5.1_H5.1_A5.1_[T5C]_[T6A]_F5.1_[T9A]_T5.1 (ssRNA)
RNA: B1 RNA with U36A, C37A
In the case of B23, the Kd is reported as 0.983 nM.

B24: Ic_S2_P5E.1_K5.1_C5.1_H5.1_A5.1_[T5G]_[T6C]_[A7T]_F5.1_[T8A]_[A10T]_T5.1 (ssRNA)
RNA: B1 RNA with C32G, A33C, A34U, U35A, C37U
B24 showed a Kd of 43.1 nM.

B25: Ic_S2_P5E.1_K5.1_C5.1_H5.1_A5.1_[T5A]_[A7C]_F5.1_[T9C]_[A10T]_T5.1 (ssRNA)
RNA: B1 RNA with C32A, A33U, A34C, U36C, C37U
Work on B25 yielded a Kd of 36.5 nM.

B26: Ic_S2_P5E.1_K5.1_C5.1_H5.1_A5.1_[T5C]_[T6C]_F5.1_[T8G]_[A10C]_T5.1 (ssRNA)
RNA: B1 RNA with A33C, U35G
B26 showed a Kd of 192 nM.
